Experimental data from patent publication US20250270280A1.

Key:
[1] = target: PA/H2-D^b (influenza Polymerase Acidic peptide … presented by H2-D^b) (mouse; human)
[2] = target: PA4C/H2-D^b (PA peptide with cysteine at position 4 presented by H2-D^b) (mouse; human)
[3] = target: PA4C7A/H2-D^b (mouse; human)
[4] = target: PA4C7K/H2-D^b (mouse; human)
[5] = target: PA4C7L/H2-D^b (mouse; human)
[6] = target: PA/H2-D^b (influenza Polymerase Acidic peptide … presented by H2-D^b) (mouse; human); remark: listed apart in the source
[7] = target: PA4C/H2-D^b (PA peptide with cysteine at position 4 presented by H2-D^b) (mouse; human); remark: listed apart in the source
[8] = target: PA4C7A/H2-D^b (mouse; human); remark: listed apart in the source
[9] = target: PA4C7K/H2-D^b (mouse; human); remark: listed apart in the source
[10] = target: PA4C7L/H2-D^b (mouse; human); remark: listed apart in the source

Substance: 6218 TCR expressed on cells
- tetramer MFI / TCRβ MFI, normalized to 6218 TCR-PA/H2-D^b [1]: 1
- tetramer MFI / TCRβ MFI, normalized to 6218 TCR-PA/H2-D^b [2]: 1.03
- tetramer MFI / TCRβ MFI, normalized to 6218 TCR-PA/H2-D^b [3]: 0.16
- tetramer MFI / TCRβ MFI, normalized to 6218 TCR-PA/H2-D^b [4]: 0.33
- tetramer MFI / TCRβ MFI, normalized to 6218 TCR-PA/H2-D^b [5]: 0.03
- IL-2 in supernatant (ELISA), 5KC T cells with CD8αβ and the TCR + DC2.4 cells + graded peptide: EC50 [panel PA] [6]: 50 nM
- IL-2 in supernatant (ELISA), 5KC T cells with CD8αβ and the TCR + DC2.4 cells + graded peptide: EC50 [panel PA4C] [7]: 49 nM
- IL-2 in supernatant (ELISA), 5KC T cells with CD8αβ and the TCR + DC2.4 cells + graded peptide: EC50 [left graph] [8]: > 50000 nM
- IL-2 in supernatant (ELISA), 5KC T cells with CD8αβ and the TCR + DC2.4 cells + graded peptide: EC50 [left graph] [9]: > 50000 nM
- IL-2 in supernatant (ELISA), 5KC T cells with CD8αβ and the TCR + DC2.4 cells + graded peptide: EC50 [left graph] [10]: > 50000 nM
